Test results taken from PMC4856986.
Residue numbers refer to the chain shown, from its start.

What was measured:
BRN2-POU = molecular target: T1, BRN2-POU (mouse, UniProt P31360 264-415); experiment: EMSA
T1 sequence: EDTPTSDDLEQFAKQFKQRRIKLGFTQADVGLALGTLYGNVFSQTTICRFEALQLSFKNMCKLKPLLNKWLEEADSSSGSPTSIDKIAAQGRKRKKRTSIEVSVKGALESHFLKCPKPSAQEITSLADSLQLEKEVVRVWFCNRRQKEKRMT

OCT6-POU [1] = molecular target: T2, OCT6-POU (mouse, UniProt P21952 245-396); experiment: EMSA
T2 sequence: T1 sequence with T3A, T5S, A74T, S83N, I84L, S103G, Q121H, S125G

PAX9 = PAX9 (mouse, UniProt P47242 4-130); experiment: EMSA and competition
SOX18-HMG (79 aa) [2] = molecular target: T3, SOX18-HMG (79 aa) (Mus musculus, UniProt P43680 77-155); experiment: X-ray crystal structure
[3] = molecular target: T4, ESRRB (DNA binding domain) (mouse, UniProt Q61539 100-186); experiment: EMSA and competition
T4 sequence: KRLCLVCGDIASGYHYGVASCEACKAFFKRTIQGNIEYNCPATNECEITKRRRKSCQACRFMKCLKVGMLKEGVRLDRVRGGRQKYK

OCT6-POU [4] = molecular target: T2, OCT6-POU; experiment: EMSA competition
SOX18-HMG (79 aa) [5] = molecular target: T3, SOX18-HMG (79 aa); experiment: ITC

T3 sequence (P43680 77-155): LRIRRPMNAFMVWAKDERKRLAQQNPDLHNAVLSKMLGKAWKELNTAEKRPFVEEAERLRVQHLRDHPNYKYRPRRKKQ
PAX9, sequence (P47242 4-130): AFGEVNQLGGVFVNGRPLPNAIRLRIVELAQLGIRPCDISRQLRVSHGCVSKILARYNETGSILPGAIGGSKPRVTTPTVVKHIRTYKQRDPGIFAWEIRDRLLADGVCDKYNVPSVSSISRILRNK

B1: Cy5-Pore (dsDNA)
DNA 1: CACATTTGAAAGGCAAATGGAG
DNA 2: CTCCATTTGCCTTTCAAATGTG
Does B1 bind (BRN2-POU)?
Result: binds

Does B1 bind (OCT6-POU [1])?
Result: binds

B2: Pax element (Cy5/UL) (dsDNA)
DNA 1: AAGCATTTTCACGCATGAGTGCACAG
DNA 2: CTGTGCACTCATGCGTGAAAATGCTT
Does B2 bind (PAX9)?
Result: binds

B3: Prox1 crystal DNA, 16 bp with CG overhangs (dsDNA)
DNA 1: CACTAGCATTGTCTGGG
DNA 2: GCCCAGACAATGCTAGT
Does B3 bind (SOX18-HMG (79 aa) [2])?
Result: binds

B4: Esrrb element (Cy5/UL) (dsDNA)
DNA 1: TGGTGACCTTGGCT
DNA 2: AGCCAAGGTCACCA
Does B4 bind [3]?
Result: binds

B5: UL-More (dsDNA)
DNA 1: TCCTCATGCATATGCATGAGGA
DNA 2: TCCTCATGCATATGCATGAGGA
Does B5 bind (OCT6-POU [4])?
Result: binds

B6: Prox1 15 bp (NAT decoy when unlabelled) (dsDNA)
DNA 1: CTAGCATTGTCTGGG
DNA 2: CCCAGACAATGCTAG
For B6, which Ka (SOX18-HMG (79 aa) [5]) is on record?
The Ka was 2.47e+06 M⁻¹.
